Target: mouse synaptosomes

“active botulinum neurotoxin A (from UniProt P0DPI0 2-1296)” was tested, and the maximum inhibition was 78%.
